Laboratory results taken from the supplement of paper PMC9112550, “Optimization of the antimicrobial peptide Bac7 by deep mutational scanning” (BMC Biology, 2022).

test system: Escherichia coli TOP10; experiment: shrunken log2 fold change of peptide-encoding DNA abundance (4.5 h post-induction vs induction); higher = less antimicrobial activity (less host growth inhibition); conditions: time post-induction: 4.5 h; library: site-saturation at positions 5, 18, 19, 20
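Further: peptides expressed intracellularly from a pBAD plasmid library in pooled LB shake-flask culture, induced with 0.3% L-arabinose, DNA abundance read by NGS, three biological replicates, DESeq2 with apeglm shrinkage.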

| Sequence | shrunken log2 fold change |
| --- | --- |
| RRIRRRPPRLPRPRPRPTNTPRP | 0.142 |
| RRIRERPPRLPRPRPRPASYPRP | -0.0425 |
| RRIRQRPPRLPRPRPRPLMCPRP | -0.0972 |
| RRIRHRPPRLPRPRPRPPDHPRP | 0.265 |
| RRIRKRPPRLPRPRPRPPWLPRP | 0.574 |
| RRIRWRPPRLPRPRPRPIKFPRP | -0.285 |
| RRIRGRPPRLPRPRPRPRVSPRP | 0.45 |
| RRIRWRPPRLPRPRPRPEWCPRP | 0.386 |
| RRIRPRPPRLPRPRPRPRVWPRP | 0.482 |
| RRIRERPPRLPRPRPRPDPQPRP | -0.102 |
| RRIRSRPPRLPRPRPRPGMSPRP | -0.0403 |
| RRIRTRPPRLPRPRPRPAHRPRP | 0.0856 |
| RRIRRRPPRLPRPRPRPKLCPRP | 0.333 |
| RRIRWRPPRLPRPRPRPMVEPRP | 0.35 |
| RRIRDRPPRLPRPRPRPTKCPRP | -0.0929 |
| RRIRTRPPRLPRPRPRPYQLPRP | -0.5 |
| RRIRWRPPRLPRPRPRPCWSPRP | -0.106 |
| RRIRKRPPRLPRPRPRPLVIPRP | -0.0927 |
| RRIRNRPPRLPRPRPRPHTWPRP | -0.296 |
| RRIRIRPPRLPRPRPRPIGAPRP | -0.0926 |
| RRIRGRPPRLPRPRPRPIDGPRP | 0.245 |
| RRIRTRPPRLPRPRPRPDASPRP | 0.0856 |
| RRIRNRPPRLPRPRPRPRYGPRP | -0.0289 |
| RRIRRRPPRLPRPRPRPKHRPRP | 0.376 |
| RRIRRRPPRLPRPRPRPNPCPRP | 0.0776 |

| Sequence | shrunken log2 fold change |
| --- | --- |
| RRIRFRPPRLPRPRPRPFYYPRP | -0.777 |
| RRIRSRPPRLPRPRPRPRIKPRP | -0.00375 |
| RRIRFRPPRLPRPRPRPYTFPRP | -1.3 |
| RRIRMRPPRLPRPRPRPTLPPRP | 0.248 |
| RRIRQRPPRLPRPRPRPAQIPRP | 0.028 |
| RRIRRRPPRLPRPRPRPYTMPRP | -0.255 |
| RRIRDRPPRLPRPRPRPRMYPRP | -0.154 |
| RRIRWRPPRLPRPRPRPIGYPRP | -0.0135 |
| RRIRDRPPRLPRPRPRPGDVPRP | 0.0601 |
| RRIRERPPRLPRPRPRPPKTPRP | -0.124 |
| RRIRARPPRLPRPRPRPEEYPRP | -0.0897 |
| RRIRLRPPRLPRPRPRPHDHPRP | 0.0691 |
| RRIRNRPPRLPRPRPRPSQKPRP | -0.0723 |
| RRIRVRPPRLPRPRPRPHQDPRP | -0.264 |
| RRIRVRPPRLPRPRPRPMIAPRP | 0.261 |
| RRIRQRPPRLPRPRPRPIYNPRP | -0.478 |
| RRIRMRPPRLPRPRPRPLSQPRP | 0.0295 |
| RRIRHRPPRLPRPRPRPWRAPRP | -0.0415 |
| RRIRHRPPRLPRPRPRPVTEPRP | -0.0954 |
| RRIRKRPPRLPRPRPRPITMPRP | -0.122 |
| RRIRWRPPRLPRPRPRPVQDPRP | -0.103 |
| RRIRVRPPRLPRPRPRPTECPRP | 0.00778 |
| RRIRPRPPRLPRPRPRPEGIPRP | -0.00608 |
| RRIRTRPPRLPRPRPRPPDVPRP | 0.176 |
| RRIRSRPPRLPRPRPRPQYPPRP | -0.157 |

| Sequence | shrunken log2 fold change |
| --- | --- |
| RRIRKRPPRLPRPRPRPRQEPRP | 0.461 |
| RRIRKRPPRLPRPRPRPECFPRP | 0.7 |
| RRIRQRPPRLPRPRPRPMPGPRP | 0.0214 |
| RRIRIRPPRLPRPRPRPHVDPRP | -0.294 |
| RRIRTRPPRLPRPRPRPVNRPRP | -0.0356 |
| RRIRNRPPRLPRPRPRPYFVPRP | -0.312 |
| RRIRQRPPRLPRPRPRPCYPPRP | -1.5 |
| RRIRMRPPRLPRPRPRPFMGPRP | -0.0409 |
| RRIRGRPPRLPRPRPRPIRDPRP | 0.0394 |
| RRIRQRPPRLPRPRPRPDKYPRP | -0.0227 |
| RRIRHRPPRLPRPRPRPDSYPRP | -0.0167 |
| RRIRSRPPRLPRPRPRPYCPPRP | -0.802 |
| RRIRFRPPRLPRPRPRPYLHPRP | -0.454 |
| RRIRERPPRLPRPRPRPVIQPRP | 0.0166 |
| RRIRIRPPRLPRPRPRPELTPRP | -0.0457 |
| RRIRWRPPRLPRPRPRPYYRPRP | -0.0707 |
| RRIRGRPPRLPRPRPRPMASPRP | 0.176 |
| RRIRCRPPRLPRPRPRPIDQPRP | -0.0719 |
| RRIRTRPPRLPRPRPRPREEPRP | 0.368 |
| RRIRDRPPRLPRPRPRPMCEPRP | -0.0122 |
| RRIRNRPPRLPRPRPRPMPPPRP | 0.208 |
| RRIRIRPPRLPRPRPRPFFQPRP | -0.412 |
| RRIRNRPPRLPRPRPRPYFGPRP | -0.284 |
| RRIRFRPPRLPRPRPRPHRFPRP | -0.0456 |
| RRIRLRPPRLPRPRPRPTERPRP | -0.189 |
